Where a chain is given by its changes, count along the chain named.
B1: cr627 (nucleic acid)
guide: GTTTAAGAGCTAAGCTGGAAACAGCATAGCAAGTTTAAATAATGCTAGTCAGTTATCAACTTGAGAAAGTGGCACCGAGTCGGTGCT
modifications: listed as DNA, chemistry not fully specified
B2: cr048 (nucleic acid)
guide: B1 guide with G1T, T4C, T43G, A51C, G65A
modifications: listed as DNA, chemistry not fully specified
B3: cr641 (nucleic acid)
guide: B1 guide with T34G, T43G, A51C, G65A
modifications: listed as DNA, chemistry not fully specified
B4: cr711 (nucleic acid)
guide: B1 guide with T34G, T43G, A51C, G65A, G72C, C86G
modifications: listed as DNA, chemistry not fully specified
B5: cr085 (nucleic acid)
guide: B1 guide with A5T, A6T, T43G, A51C, G65A
modifications: listed as DNA, chemistry not fully specified
B6: cr320 (nucleic acid)
guide: B1 guide with A32T, T43G, A51C
modifications: listed as DNA, chemistry not fully specified
B7: cr032 (nucleic acid)
guide: B1 guide with T2A, A5G, T43G, A51C, G65A
modifications: listed as DNA, chemistry not fully specified
B8: cr745 (nucleic acid)
guide: B1 guide with T43A, A51C, G65A
modifications: listed as DNA, chemistry not fully specified
B9: cr952 (nucleic acid)
guide: B1 guide with A31T, T43G, T49G, A51C, T54A, G65A
modifications: listed as DNA, chemistry not fully specified
B10: cr454 (nucleic acid)
guide: B1 guide with A59C, G65A, T70G, C73T, G85A
modifications: listed as DNA, chemistry not fully specified
B11: cr986 (nucleic acid)
guide: B1 guide with T43G, T49G, A51C, G65A
modifications: listed as DNA, chemistry not fully specified
B12: cr737 (nucleic acid)
guide: B1 guide with T43G, A51C, G65A, C75G, C76G, G77C, A78T, C81G, G83C
modifications: listed as DNA, chemistry not fully specified
B13: cr958 (nucleic acid)
guide: B1 guide with G33C, T43G, A51C, G65A, C76T, G82A
modifications: listed as DNA, chemistry not fully specified
B14: cr410 (nucleic acid)
guide: B1 guide with T43G, A51C, A59G, T70C
modifications: listed as DNA, chemistry not fully specified
B15: cr581 (nucleic acid)
guide: B1 guide with A37T, T43G, A51C, G65A
modifications: listed as DNA, chemistry not fully specified
B16: cr043 (nucleic acid)
guide: B1 guide with T2G, A5T, T43G, A51C, G65A
modifications: listed as DNA, chemistry not fully specified
B17: cr633 (nucleic acid)
guide: B1 guide with A28G, G33T, A42C, T43G, A51C, G65A
modifications: listed as DNA, chemistry not fully specified
B18: cr386 (nucleic acid)
guide: B1 guide with T34G, T43G, A51C, T61C, G65A, A68G
modifications: listed as DNA, chemistry not fully specified
B19: cr935 (nucleic acid)
guide: B1 guide with A41G, T43G, A51C, G65C
modifications: listed as DNA, chemistry not fully specified
B20: cr946 (nucleic acid)
guide: B1 guide with T43C, A51G, T62G, G65A, A67C, A74G, T84C
modifications: listed as DNA, chemistry not fully specified
B21: cr922 (nucleic acid)
guide: B1 guide with T34G, T43G, A51C, G65A, C75A, G83T
modifications: listed as DNA, chemistry not fully specified
B22: cr080 (nucleic acid)
guide: B1 guide with G1T, A5T, T43G, A51C, G65A
modifications: listed as DNA, chemistry not fully specified
B23: cr950 (nucleic acid)
guide: B1 guide with A31T, T34G, T43G, A51C, T54G, G65A
modifications: listed as DNA, chemistry not fully specified
B24: cr547 (nucleic acid)
guide: B1 guide with A41G, T43G, A51C, G65A, G79A
modifications: listed as DNA, chemistry not fully specified
B25: cr492 (nucleic acid)
guide: B1 guide with T43G, A51C, A55C, G65A
modifications: listed as DNA, chemistry not fully specified
B26: cr542 (nucleic acid)
guide: B1 guide with T34A, T43G, A51C, T54C, A58G, G65A
modifications: listed as DNA, chemistry not fully specified
B27: cr700 (nucleic acid)
guide: B1 guide with A41T, T43G, A51C, G65A, A78C
modifications: listed as DNA, chemistry not fully specified
B28: cr030 (nucleic acid)
guide: B1 guide with T2C, A5T, T43G, A51C, G65A
modifications: listed as DNA, chemistry not fully specified
B29: cr961 (nucleic acid)
guide: B1 guide with T43G, A51C, T62C, G65A, A67G, G72C, C73A, G85T, C86G
modifications: listed as DNA, chemistry not fully specified
B30: cr680 (nucleic acid)
guide: B1 guide with T43C, A51G, T61A, G65A, A68T, A74T, T84A
modifications: listed as DNA, chemistry not fully specified
B31: cr496 (nucleic acid)
guide: B1 guide with G29A, T43G, A51C, G52T, G65A, T80A
modifications: listed as DNA, chemistry not fully specified
B32: cr305 (nucleic acid)
guide: B1 guide with T34G, T43G, A51C, G65A, A74C, T84G
modifications: listed as DNA, chemistry not fully specified
B33: cr418 (nucleic acid)
guide: B1 guide with T34G, T43G, A51C, T61A, G65A, A68T
modifications: listed as DNA, chemistry not fully specified
B34: cr951 (nucleic acid)
guide: B1 guide with T43G, A51C, A74T, T84A
modifications: listed as DNA, chemistry not fully specified
B35: cr186 (nucleic acid)
guide: B1 guide with T34G, T43G, A51C, C60G, G65A, G69C
modifications: listed as DNA, chemistry not fully specified
B36: cr507 (nucleic acid)
guide: B1 guide with G65A, C76A, G82T
modifications: listed as DNA, chemistry not fully specified
B37: cr389 (nucleic acid)
guide: B1 guide with T43A, G44A, C50T, A51T, G65A
modifications: listed as DNA, chemistry not fully specified
B38: cr519 (nucleic acid)
guide: B1 guide with T34G, T43G, A51C, G65A, A74G, T84C
modifications: listed as DNA, chemistry not fully specified
B39: cr834 (nucleic acid)
guide: B1 guide with T34G, T43G, A51C
modifications: listed as DNA, chemistry not fully specified
B40: cr541 (nucleic acid)
guide: B1 guide with T43A, C45G, G48C, A51T, G65A, C73T, G85A
modifications: listed as DNA, chemistry not fully specified
B41: cr987 (nucleic acid)
guide: B1 guide with T43G, T49G, A51C, G65T
modifications: listed as DNA, chemistry not fully specified

Tested on: K562 CRISPRi cells
Test: Constant region variant library pooled growth screen, K562
Assay type: cell-based, human
In short: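 Pooled library transduced into K562 CRISPRi cells in duplicate, puromycin-selected, grown at >2000× coverage and sampled after 4 to 8 days. Phenotypes per targeting sequence:constant region pair were normalized to the unmodified-scaffold pairing to give relative activity.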

[1] = sgRNA constant region variants, activity relative to the original, un-modified constant region cr995
[2] = sgRNA constant region variant, activity relative to unmodified constant region cr995, mean CRISPRi activity

Molecule	Mean relative activity [1]	Mean relative activity [2]
B1	0.02763	–
B2	0.02761	–
B3	0.02687	–
B4	0.0267	–
B5	0.02666	–
B6	1.035	–
B7	0.02646	–
B8	0.02631	–
B9	0.02621	–
B10	0.02618	–
B11	0.0258	–
B12	0.02539	–
B13	0.0249	–
B14	1.034	–
B15	0.02488	–
B16	0.0245	–
B17	0.02445	–
B18	0.02428	–
B19	0.02413	–
B20	0.0237	–
B21	0.02327	–

Molecule	Mean relative activity [1]	Mean relative activity [2]
B22	0.02323	–
B23	0.0224	–
B24	0.02194	–
B25	1.034	–
B26	0.02115	–
B27	0.02103	–
B28	0.02089	–
B29	1.088	–
B30	–	0.02086
B31	–	0.02078
B32	–	0.02073
B33	–	0.02069
B34	1.034	–
B35	–	0.0199
B36	–	0.01954
B37	–	0.01944
B38	–	0.01933
B39	–	0.01861
B40	–	0.01856
B41	–	0.01815
